No end group written: not given here.
B1: AFA-Peptide 3 (MP-3) (peptide)
peptide: H-NFVPTNVGPFAF-NH2
notes: Synthetic dodecapeptide NH2-N-F-V-P-T-N-V-G-P-F-A-F-CONH2; also called AFA-CGRP receptor antagonist peptide 3
B2: AFA-Peptide 6 (MP-6) (peptide)
peptide: H-NFIPTNVGPFAF-NH2
notes: Analog of AFA-peptide 3: NH2-N-F-I-P-T-N-V-G-P-F-A-F-CONH2
B3: AFA-Peptide 10 (MP-10) (peptide)
peptide: H-NFAPTNVGPFAF-NH2
notes: Analog of AFA-peptide 3: NH2-N-F-A-P-T-N-V-G-P-F-A-F-CONH2
B4: AFA-Peptide 7 (MP-7) (peptide)
peptide: H-NFLPTNVGPFAF-NH2
notes: Analog of AFA-peptide 3: NH2-N-F-L-P-T-N-V-G-P-F-A-F-CONH2
B5: AFA-Peptide 8 (MP-8) (peptide)
peptide: H-NLVPTNVGPFAF-NH2
notes: Analog of AFA-peptide 3: NH2-N-L-V-P-T-N-V-G-P-F-A-F-CONH2
B6: AFA-Peptide 9 (MP-9) (peptide)
peptide: H-NFFPTNVGPFAF-NH2
notes: Analog of AFA-peptide 3: NH2-N-F-F-P-T-N-V-G-P-F-A-F-CONH2

target: T1, human calcitonin CGRP1 (CGRP1) membrane (human, UniProt Q16602 23-461; O60894 27-148); assay: displacement of 0.24 nM [125I]-CGRP from human CGRP1 receptor membranes, filtration; Ki by Cheng-Prusoff; mean ± SD
T1 construct: whole, on cells; Purchased membrane preparation (Perkin Elmer), homogenised in assay buffer; the receptor stood in membranes, not intact cells; also called CGRP receptors; CGRP receptor
T1 sequence (Q16602 23-461, chain 1 of 2): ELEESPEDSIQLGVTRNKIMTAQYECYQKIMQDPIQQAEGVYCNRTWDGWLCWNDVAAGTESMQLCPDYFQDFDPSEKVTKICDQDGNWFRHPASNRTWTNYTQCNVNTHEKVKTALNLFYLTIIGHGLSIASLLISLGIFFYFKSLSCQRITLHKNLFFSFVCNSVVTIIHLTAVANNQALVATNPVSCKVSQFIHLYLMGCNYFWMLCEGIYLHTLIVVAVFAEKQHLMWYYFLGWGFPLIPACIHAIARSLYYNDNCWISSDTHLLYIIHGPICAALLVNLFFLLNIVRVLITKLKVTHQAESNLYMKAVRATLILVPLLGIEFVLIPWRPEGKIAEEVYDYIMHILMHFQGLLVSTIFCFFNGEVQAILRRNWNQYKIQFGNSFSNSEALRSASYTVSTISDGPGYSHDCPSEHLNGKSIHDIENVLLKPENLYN
T1 sequence (O60894 27-148, chain 2 of 2): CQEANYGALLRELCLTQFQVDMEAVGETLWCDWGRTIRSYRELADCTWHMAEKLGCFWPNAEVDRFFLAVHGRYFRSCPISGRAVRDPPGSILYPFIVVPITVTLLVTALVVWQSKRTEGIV
Experimental: CGRP1 membrane was homogenized in the assay buffer (50 mM Tris-HCl pH 7.4, 5 mM MgCl₂, 0.5% BSA, 0.05% Tween20). […] After 1 h of incubation, at room temperature, samples were filtered, using a Tomtec cell harvester, through glass fiber filters that had been presoaked in 0.05% polyethyleneimine and washed with the cold Tris buffer (50 mM Tris-HCl pH7.4). Filters were counted on a betaplate reader (Wallac).

Going from YVPTAVGPFAF-NH2 (also called conventional CGRP 27-37) [CGRP 27-37] to B1, the Ki falls from 697 nM to 33.3 nM (21-fold).

Going from B2 to B3, the Ki falls from 63.7 nM to 33.4 nM (1.9-fold).

First: B4
Second: B5
The Ki of the first is 5.7-fold lower: 54.8 nM for the first, 315 nM for the second. The first binds more tightly here.

B6 gave a Ki of 49.6 nM.

Reference: patent US20160347810A1 (AFASCI, published 2016)
